Data reported in publication PMC9751095 (2022).

Target: T1, Myc-TRAP1 (human, UniProt Q12931 60-704)
T1 chain: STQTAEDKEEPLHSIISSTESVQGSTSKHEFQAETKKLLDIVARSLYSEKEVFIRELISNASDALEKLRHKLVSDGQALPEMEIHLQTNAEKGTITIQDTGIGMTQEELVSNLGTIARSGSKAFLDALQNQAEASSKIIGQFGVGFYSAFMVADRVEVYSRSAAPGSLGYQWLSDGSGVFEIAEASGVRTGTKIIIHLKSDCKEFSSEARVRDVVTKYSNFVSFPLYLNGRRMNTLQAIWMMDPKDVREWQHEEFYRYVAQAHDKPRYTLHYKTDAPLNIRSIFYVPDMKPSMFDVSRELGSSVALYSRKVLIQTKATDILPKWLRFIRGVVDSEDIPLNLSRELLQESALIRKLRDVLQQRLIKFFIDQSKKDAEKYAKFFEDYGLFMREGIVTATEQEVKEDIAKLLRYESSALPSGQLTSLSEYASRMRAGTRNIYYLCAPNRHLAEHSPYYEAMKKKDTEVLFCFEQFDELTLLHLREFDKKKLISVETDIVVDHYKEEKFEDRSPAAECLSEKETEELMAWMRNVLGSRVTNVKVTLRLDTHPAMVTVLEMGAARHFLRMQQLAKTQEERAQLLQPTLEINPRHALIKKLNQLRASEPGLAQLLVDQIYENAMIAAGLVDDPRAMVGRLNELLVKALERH
Test: SPR; printed as "Ka 69.8 µM"

Kd: 69.8 µM
B1: recombinant mature human OSCP (natural protein)
chain: FAKLVRPPVQVYGIEGRYATALYSAASKQNKLEQVEKELLRVAQILKEPKVAASVLNPYVKRSIKVKSLNDITAKERFSPLTTNLINLLAENGRLSNTQGVVSAFSTMMSVHRGEVPCTVTSASPLEEATLSELKTVLKSFLSQGQVLKLEAKTDPSILGGMIVRIGEKYVDMSVKTKIQKLGRAMREIV
